Laboratory results taken from patent US20130108658A1 (published 2013).

B1: AAV2 RGD4C 453 A2 (other)
chain: MAADGYLPDWLEDTLSEGIRQWWKLKPGPPPPKPAERHKDDSRGLVLPGYKYLGPFNGLDKGEPVNEADAAALEHDKAYDRQLDSGDNPYLKYNHADAEFQERLKEDTSFGGNLGRAVFQAKKRVLEPLGLVEEPVKTAPGKKRPVEHSPVEPDSSSGTGKAGQQPARKRLNFGQTGDADSVPDPQPLGQPPAAPSGLGTNTMATGSGAPMADNNEGADGVGNSSGNWHCDSTWMGDRVITTSTRTWALPTYNNHLYKQISSQSGASNDNHYFGYSTPWGYFDFNRFHCHFSPRDWQRLINNNWGFRPKRLNFKLFNIQVKEVTQNDGTTTIANNLTSTVQVFTDSEYQLPYVLGSAHQGCLPPFPADVFMVPQYGYLTLNNGSQAVGRSSFYCLEYFPSQMLRTGNNFTFSYTFEDVPFHSSYAHSQSLDRLMNPLIDQYLYYLSRTNTPSGACDCRGDCFCATTTQSRLQFSQAGASDIRDQSRNWLPGPCYRQQRVSKTSADNNNSEYSWTGATKYHLNGRDSLVNPGPAMASHKDDEEKFFPQSGVLIFGKQGSEKTNVDIEKVMITDEEEIRTTNPVATEQYGSVSTNLQAGNAQAATADVNTQGVLPGMVWQDRDVYLQGPIWAKIPHTDGHFHPSPLMGGFGLKHPPPQILIKNTPVPANPSTTFSAAKFASFITQYSTGQVSVEIEWELQKENSKRWNPEIQYTSNYNKSVNVDFTVDTNGVYSEPRPIGTRYLTRNL
notes: Capsid particle of VP-1, VP-2 and VP-3; substitution positions count on wild-type AAV2 VP-1

How the values were obtained:
[1] = target: AAV-amyloid-453-587 (AAV2; human) (UniProt P03135)
[2] = target: T1, purified αvβ3 integrin (CHEMICON) (UniProt P06756 31-1048; P05106 27-788); assay: A20-capture ELISA, purified αvβ3 integrin 100 ng/well, normalised to A20-biot
T1 construct: also called soluble αvβ3; soluble receptor αvβ3
T1 sequence (P06756 31-1048, chain 1 of 2): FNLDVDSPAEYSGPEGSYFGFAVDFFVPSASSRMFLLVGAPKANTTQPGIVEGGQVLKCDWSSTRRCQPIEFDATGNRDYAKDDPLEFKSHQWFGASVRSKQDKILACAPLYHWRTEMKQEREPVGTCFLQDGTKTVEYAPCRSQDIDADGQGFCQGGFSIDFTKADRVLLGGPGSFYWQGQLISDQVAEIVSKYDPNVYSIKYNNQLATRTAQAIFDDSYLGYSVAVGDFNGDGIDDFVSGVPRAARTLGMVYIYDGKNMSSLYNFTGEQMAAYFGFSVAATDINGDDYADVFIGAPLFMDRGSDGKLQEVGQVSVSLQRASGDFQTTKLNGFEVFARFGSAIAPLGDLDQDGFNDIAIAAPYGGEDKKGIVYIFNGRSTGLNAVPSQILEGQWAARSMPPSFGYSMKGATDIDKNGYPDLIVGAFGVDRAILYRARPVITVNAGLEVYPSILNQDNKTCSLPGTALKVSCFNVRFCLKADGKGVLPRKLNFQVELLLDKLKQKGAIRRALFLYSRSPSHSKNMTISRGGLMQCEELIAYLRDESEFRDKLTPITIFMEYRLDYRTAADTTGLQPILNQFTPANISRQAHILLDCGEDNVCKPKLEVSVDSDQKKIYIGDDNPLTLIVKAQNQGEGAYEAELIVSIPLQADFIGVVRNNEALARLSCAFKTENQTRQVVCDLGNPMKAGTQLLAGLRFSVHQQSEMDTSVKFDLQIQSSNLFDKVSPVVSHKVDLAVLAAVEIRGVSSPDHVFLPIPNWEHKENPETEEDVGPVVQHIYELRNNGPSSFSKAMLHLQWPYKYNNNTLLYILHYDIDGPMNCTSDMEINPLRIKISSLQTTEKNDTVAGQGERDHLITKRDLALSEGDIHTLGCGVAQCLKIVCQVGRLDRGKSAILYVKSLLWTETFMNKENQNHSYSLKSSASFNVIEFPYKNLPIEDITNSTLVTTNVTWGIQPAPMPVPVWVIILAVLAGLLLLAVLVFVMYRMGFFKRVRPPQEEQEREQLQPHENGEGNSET
T1 sequence (P05106 27-788, chain 2 of 2): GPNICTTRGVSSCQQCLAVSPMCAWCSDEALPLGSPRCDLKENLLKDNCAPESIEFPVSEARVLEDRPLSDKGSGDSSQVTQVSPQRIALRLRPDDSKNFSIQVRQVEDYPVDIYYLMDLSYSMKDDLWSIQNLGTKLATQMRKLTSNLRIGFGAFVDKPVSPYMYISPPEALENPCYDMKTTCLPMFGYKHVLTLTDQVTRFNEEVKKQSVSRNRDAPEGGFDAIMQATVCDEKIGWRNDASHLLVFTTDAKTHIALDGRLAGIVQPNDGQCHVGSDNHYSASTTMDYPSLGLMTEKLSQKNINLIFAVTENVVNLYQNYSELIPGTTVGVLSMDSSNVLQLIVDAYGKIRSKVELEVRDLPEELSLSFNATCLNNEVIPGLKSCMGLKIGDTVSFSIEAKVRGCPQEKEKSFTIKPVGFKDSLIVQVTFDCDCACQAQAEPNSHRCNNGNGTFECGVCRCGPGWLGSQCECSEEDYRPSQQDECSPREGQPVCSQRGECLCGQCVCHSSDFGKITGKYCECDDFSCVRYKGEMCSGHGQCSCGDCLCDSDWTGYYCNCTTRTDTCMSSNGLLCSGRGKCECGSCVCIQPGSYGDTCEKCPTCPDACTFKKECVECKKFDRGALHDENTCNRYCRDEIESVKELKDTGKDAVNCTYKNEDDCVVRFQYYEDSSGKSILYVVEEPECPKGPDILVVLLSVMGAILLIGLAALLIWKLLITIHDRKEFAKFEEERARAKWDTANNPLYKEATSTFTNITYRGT

Molecule | fold higher affinity against the I-587-insertion mutant [1] | fold increase of binding activity against RGD4C 453 [2]
anti-β-amyloid mAb 6E10 (CHEMICON) (antibody) | 2 fold | 
B1 |  | ~50 fold
